# Test results as given in patent US20240352438A1, “MEANS AND METHODS FOR DETOXIFYING OCHRATOXIN A” (DSM Austria GmbH, priority 2021, published 2024).
# Where a chain is given by its changes, count along the chain named.
# B1: 153 (protein)
# chain: MTTRTRILTAFLSLLAANACAADAAPAAPHTVVLRAARMFDGASGKLVDHPQLTIVGNKIVRIAQGDKAEVPAGAEVVDLGDATLLPGFIDAHVHLSGQSSDNWYGDFFDNMMRFPAEQALYGAYYARITLEAGFTSVRDVGSTDWVALGLRNAIDAGKVPGPRMLVSNYPVGSTGGHADQDPIPPHKLPLAGPLQGVCNGPEECRAAVRYQIKYGANVIKFMPSGGVLSLSDPVDAPELSQDEMNAVIGESHAWGRKVAAHAHGDKAAKMAVAAGVDSIEHGSFIEDDTLRAMKAKNVYLVPTISAIAHVEEKIGTYPPVIAEKGRAAAAHLRQTFRHAVQIGVPIALGTDAGVGAHGSNAREFRYMVENGLTPAQALLAGTANAARLLGTFDRVGTLEAGKLADVVAVPGNPIADITVTERPLFVMKDGVVVRRDAVR
# modifications: exemplary polypeptide
# B2: 159 (protein)
# chain: B1 chain with P171A, I308A
# modifications: exemplary polypeptide
# B3: 158 (protein)
# chain: B1 chain with P171A, I184V, Y318F, G354A
# modifications: exemplary polypeptide
# B4: 156 (protein)
# chain: B1 chain with P171A, I184V, I308V, Y318F
# modifications: exemplary polypeptide
# B5: 154 (protein)
# chain: B1 chain with Y318F, G354A
# modifications: exemplary polypeptide
# B6: 155 (protein)
# chain: B1 chain with P171A, I184V, I308A, Y318F
# modifications: exemplary polypeptide
# B7: 157 (protein)
# chain: B1 chain with P171A, I184V
# modifications: exemplary polypeptide
# B8: 29 (protein)
# chain: MDLGIKNGNVFNGKGVVGKVNIYVKDGKIVEISKENKQAKIEIDAKDMFVMPGLIDAHIHLTGIKGGSLLKTMFEKPEYRVLRASKWLEKLLLAGFTTVRDCGETISLALKRGVSEGIINGPRIIAAGKPISQTFGHGELSHDVPLEFSMALSFSEFCDGVESCIRASRKVLRDGADFIKIFATGGVLSQRDRPEHPQLSYEEISAIVNEAEKINTYVAAHAHGDKGARIAVEAGIKTLEHGTLLRDETLKLMRERNVTLTPTLTIQELIYKYGKQIGVDEWGLQKINEVRESVVNVVKKAEEYGVMIITGTDLGFETGLEEIDIGKNWMESVLLVERGGLSTISSLRASTYNSAFAIGINAGAIEVGKDADIIVIDGDPTENIRDLSKVRRVVKNGKLTVEDGKFL
# modifications: exemplary polypeptide
# B9: 23 (protein)
# chain: MQYDVAIKNGNVFTGTEFIGKMNIYISNGKISKVSKEDLNAKQEIDAKDMLVMPGLIDAHMHISGLKGGSLLKIMFEKPEYRALRATKWLEKLLLAGFTTVRDCGEPISISLKRAVNEGYIKGPKIIAAGKPITQTFGHGEFSHDIPLEFSISLGFSEICDGTESCIHAARKVLRDGSDFIKIFATGGVLSQRDRPDMPQLSFDEIRAIVNEAEKAGTYVAAHAHGDKGARIAIEAGIKTLEHGSLLKEDTLKLMLEKNISLTPTLTITEIIYKYGKTIGVDEWGLEKIVEVRENLHKVLRKAKELGITIITGTHMGFETGLEDYDIGKNWTEILLLTEVGGLSNEEALRAATYNSAKALGLNSGLIDEGKDADIIVIDGNPLENIKDVSKVVHVIKQGKLEVLDSKIINNY
# modifications: exemplary polypeptide
# B10: 27 (protein)
# chain: MDILIKGGQVFNGKDFIGKANVYIKYGKIVEVSKEVKEAKEEIDARDMFVMPGLIDAHIHLSGIKGGSLMKTMFERPEYRVLRASKWLEKLLLAGFTTVRDCGEYVSLALKRAVQEGTIKGSNIIAAGRPVTQTFGHGEISHDIPLEFSHKVGFSEFCDGTESCIHAARKILRDGSDFIKVFATGGVLSQRDKPENPQLSYDEIKAIVNEAHKVGTYVAAHAHGDAGAKIAVEAGVKTIEHGTLLKDDTLKLMVNKGVSLTPTLTIQEVIYRYGKQIGVDEWGLQKIFEVRERVADVVKKAKDYGVLMISGTDLGFETGLWDIDMGKNWYELVLLVERGGLTPKEALTTATYNSSIALGINSGFIDIGKEGDLVVIDGNPLENIYDIAKVTHVLKAGRVEVRNGKLESK
# modifications: exemplary polypeptide
# B11: 24 (protein)
# chain: MELAIRNGIVFNGKEIIGKTNIYVREGKIVEVSREDHSAKMEIDAKDMFVMPGLIDAHIHLSGIKGGSLLKIMFEKPEYRVLRAAKWLEKLLLAGFTTVRDCGETVSLALKRALNDGIIGGPKVIAAGKPITQTFGHGELSHDVPLEFSKTMSFSEFCDGMESCIHAARKVLRDGADFIKIFATGGVLSQRDRPEHPQLSYEEIRAIVNEAEKVNTYVAAHAHGDRGARIAIEAGVKTLEHGTLLKDETLKLMKEKNVTLTPTLTIQELIFKYGKQIGVDEWGLQKITSVRENIANVVRKAKEYGVTIISGTDLGFETGLEEIDMGKNWMETVLLVERGGLSPIEALRASTYNAAMAIGINAGVIEIGKDADIIIINGDPTLNVREISKITHVVKNGKLTVENKSIKG
# modifications: exemplary polypeptide
# B12: 26 (protein)
# chain: MAFDIALKNGNIFNGKEFIGKSNIYINNGKIVKVSKEELDAKQEIDAMDMFVMPGLIDAHMHISGIKGGSLLKLMFERPEYRTIRATKWLEKLLLAGFTTVRDCGDPISISLAKAVKEGIIKGPNVIAAGRPITQTFGHGELSHDIPLEVSETTGFSEICDGTESCIHAARKVLREGSDFIKIFATGGVLSQRDKPENPQLTYDEIKVIVNEAEKVGTYVAAHAHGDKGARIAIEAGIKTLEHGTLLQDETLKLMIEKKVTLTPTLSIQEVIYRHGKEIGVDEWGLEKIAMVRDSISSVVKKAKDYGITIITGTDLGFETGLEDIDIGKNWMEIVLLIEIGGLTPVEALRAATYNSSIAININSGLIDSGKEADLIIINGNPLEDIKDISKVSYVIKDGKIEVEERKIKN
# modifications: exemplary polypeptide
# B13: 28 (protein)
# chain: MDISIKGGELFTGKELLGKFNIYIKDKKIVEISKEDKQAEVEVNAKDMFVMPGLIDAHIHLSGVKGGSLLKTMFEKPEYRVLRASKWLERLLLAGFTTVRDCGESISIALKRAVNEKIIKGPKIIAAGRPISQTFGHGELSHDLPLEFSKALSFSEFCDGVESCIHASRKVLREGADFIKIFATGGVLSQRDKPENPQLSYEEIKAIVNEAEKVNTYVAAHAHGDKGARIAIEAGVKTLEHGTLLRDDTLKLMVEKRVSLTPTLTIQELIYKYGKQIGVDEWGLEKINSVRESVAEVVRKAKEYGVLIINGTDLGFETGLDEIDMGKNWMETVLLVERGNLSNVEALRASTYNSAIAIGNDAGIIDIGRPADIIVINGNPSENIRDISKVVHVIKDGSLVVENKRLTDSL
# modifications: exemplary polypeptide
# B14: 25 (protein)
# chain: MFDLGIKNGNVFSGKDNLGKTNIYVNNGKIVKISKENLEVRQEIDAKDMFVMPGLIDSHIHLSGIKGGSLLKIMFEKPEYRILRASKWLEKLLLAGFTTVRDCGDPISISLAKGVKDGIIIGPNIIAAGRPITQTFGHGEISHDIPLEFSEVLGFSEICDGVESCIHSARKVLREGSDFIKIFATGGVLSQRDRPENPQLTYEEIKSIVNEAEKIGTYVAAHAHGDKGARIAIEAGIKTLEHGTMLKDDTMKLMIEKDVSLTPTLTIQEVIYKYGKQIGVDEWGLEKITEVRNSISSVVKKAKEYGIRIITGTDLGFETGLSDIDIGKNWVELTLLVERGGLTPKEALQAATYNSALSLRINSGLIDTDRNADIIIIDGDPEENISDIAKIDHVIKNGNIIVEKGKIINYS
# modifications: exemplary polypeptide
# Assay: OTA detoxification activity assay (specific activity, fluorescence reduction ex/em 390/450 nm)
# Type: biochemical
# Conditions: pH 6.0; SEQ ID NO: 1 = 100%
# How it was run: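 Recombinant enzyme preparation with 200 ng/mL OTA in 100 mM sodium phosphate, at pH 6.0 and pH 7.5, 37° C. Degradation followed as the fall in fluorescence at ex/em 390/450 nm. Specific activity taken from the initial linear slope; one unit degrades 1 μmol OTA per min at a starting OTA of […].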
row,Molecule,"Specific OTA detoxification activities in % compared to the enzyme of SEQ ID NO: 1, pH 6.0 [%]"
1,B1,72
2,B2,84
3,B3,157
4,B4,144
5,B5,38
6,B6,116
7,B7,78

# Same assay, conditions: pH 7.5; SEQ ID NO: 1 = 100%
row,Molecule,"Specific OTA detoxification activities in % compared to the enzyme of SEQ ID NO: 1, pH 7.5 [%]"
1,B1,77
2,B2,93
3,B3,92
4,B4,109
5,B5,38
6,B6,124
7,B7,63

# Assay: Thermostability assay: residual OTA detoxification activity after 10 min incubation at 45-99° C. (T50)
# Type: physicochemical
# Conditions: 0.1 mg/mL protein in 20 mM Tris-HCl pH 7.5, residual OTA detoxification activity relative to 4° C. reference aliquot
# Description: Stability was determined in terms of thermostability. Notwithstanding, a person having skill in the art is aware that stability towards high temperature (e.g. more than 30° C.) often correlates with stability towards other non-standard conditions such as stability towards acidic or basic pH (e.g. below pH 6.5 or above pH 7.5, respectively), towards elevated salt concentrations, organic solvents or drying.
# To determine the kinetic stability of the produced enzymes, thermostability assays were performed. To this end, purified protein samples were diluted to a protein concentration of 0.1 mg/mL in 20 mM Tris-HCl buffer pH 7.5 and aliquots were incubated in a thermocycler for 10 min at either 45, 55, 65, 75, 80, 85, 90, 95 or 99° C. After this incubation, the aliquots were stored at 4° C. until further analysis. A reference aliquot was stored at 4° C. throughout the incubation. Subsequently, all aliquots were assayed for residual OTA detoxification activity using the assay described in Example 3. Residual enzyme activities were calculated relative to the reference aliquot. The temperature range in which 50% of the initial activity was lost after the incubation (T50), in relation to the reference aliquot was determined.
row,Molecule,T50 (temperature at which 50% of the initial activity was maintained) [°C]
1,B8,>95
2,B9,>95
3,B10,>95
4,B11,>95
5,B12,>95
6,B13,>95
7,B14,>95

# Assay: Enzymatic activity comparison: activity remaining after 65° C. for 10 min at pH 6.0, relative to SEQ ID NO: 1
# Type: physicochemical
# Conditions: not given
# Description: To compare the temperature behavior and thermostability of selected enzymes to one another, enzyme was incubated at 65° C. for 10 min at pH 6.0. The enzymatic activity remaining after incubation was compared to the remaining activity of the enzyme of SEQ ID NO: 1 after incubation, the latter being set to 100%, see Table 16.
row,Molecule,"Enzymatic activity remaining after incubation, compared to SEQ ID NO: 1 (set to 100%) [%]"
1,B1,34
2,B2,30
3,B3,9
4,B4,34
5,B5,32
6,B6,35
7,B7,73
